From publication PMC13507078, “The BRCT domain enhances DNA binding and catalytic efficiency of fungal PARPs”

How the values were obtained:
[1] = molecular target: Af-PARP1 K52/60A (Aspergillus fumigatus, UniProt B0Y3N8 1-23+35-688, K63A;K71A;internal_change); assay: EMSA; EMSA: 50 mM HEPES pH 8, 100 mM NaCl, 10% glycerol, 10 mM DTT, 45 min at 4 °C, 7% native PAGE 0.5x TBE; plasmid EMSA: 20 mM Tris-HCl pH 8, 30 mM NaCl, 1 mM EDTA, 1 mM DTT; CD: 20 mM HEPES pH 8, 100 mM NaCl, 0.5 mM TCEP, 2% glycerol; conditions: protein: recombinant; tags: His; dumbbell of two hairpins, nick
[2] = molecular target: Af-PARP1 K60A (Aspergillus fumigatus, UniProt B0Y3N8 1-23+35-688, K71A;internal_change); assay: as above; conditions: protein: recombinant; tags: His; dumbbell of two hairpins, nick
[3] = molecular target: Af-PARP1 E53A (Aspergillus fumigatus, UniProt B0Y3N8 1-23+35-688, E64A;internal_change); assay: as above; conditions: protein: recombinant; tags: His; dumbbell of two hairpins, nick
[4] = molecular target: Af-PARP1 Q22A (Aspergillus fumigatus, UniProt B0Y3N8 1-23+35-688, Q22A;internal_change); assay: as above; conditions: protein: recombinant; tags: His; dumbbell of two hairpins, nick
[5] = molecular target: Af-PARP1 S14A (Aspergillus fumigatus, UniProt B0Y3N8 1-23+35-688, S14A;internal_change); assay: as above; conditions: protein: recombinant; tags: His; dumbbell of two hairpins, nick
[6] = molecular target: Af-PARP1 K56A (Aspergillus fumigatus, UniProt B0Y3N8 1-23+35-688, K67A;internal_change); assay: as above; conditions: protein: recombinant; tags: His; dumbbell of two hairpins, nick
[7] = molecular target: Af-PARP1 K52A (Aspergillus fumigatus, UniProt B0Y3N8 1-23+35-688, K63A;internal_change); assay: as above; conditions: protein: recombinant; tags: His; dumbbell of two hairpins, nick
[8] = molecular target: T1, Af-PARP1 S241Q (Aspergillus fumigatus, UniProt B0Y3N8 1-23+35-688, S252Q;internal_change); assay: EMSA; mutation did not restore binding; EMSA: 50 mM HEPES pH 8, 100 mM NaCl, 10% glycerol, 10 mM DTT, 45 min at 4 °C, 7% native PAGE 0.5x TBE; plasmid EMSA: 20 mM Tris-HCl pH 8, 30 mM NaCl, 1 mM EDTA, 1 mM DTT; CD: 20 mM HEPES pH 8, 100 mM NaCl, 0.5 mM TCEP, 2% glycerol; conditions: protein: recombinant; tags: His; hairpin, blunt end
[9] = molecular target: T1, Af-PARP1 S241Q; assay: EMSA; EMSA: 50 mM HEPES pH 8, 100 mM NaCl, 10% glycerol, 10 mM DTT, 45 min at 4 °C, 7% native PAGE 0.5x TBE; plasmid EMSA: 20 mM Tris-HCl pH 8, 30 mM NaCl, 1 mM EDTA, 1 mM DTT; CD: 20 mM HEPES pH 8, 100 mM NaCl, 0.5 mM TCEP, 2% glycerol; conditions: protein: recombinant; tags: His; described as blunt duplex; printed strands not exactly complementary

CGGTCGATCGTAAGATCGACCGGCGCTGGAGCTTGCTCCAGCGC (structured_DNA, 5'-phosphate) [DNA-1 (5'P nick)]: binds [1]; binds [2]; binds [3]. CGGTCGATCGTAAGATCGACCGGCGCTGGAGCTTGCTCCAGCGC (structured_DNA, 5'-phosphate) [DNA-1 (5'P nick)]: binds [4]; binds [5]; binds [6]. CGGTCGATCGTAAGATCGACCGGCGCTGGAGCTTGCTCCAGCGC (structured_DNA, 5'-phosphate) [DNA-1 (5'P nick)]: binds [7].

GGAAGTTCTTTTGAACTTCC (structured_DNA, 5'-phosphate) [DNA-5 (5'P blunt)]: no binding [8].

B1: DNA-16/17 (5'P duplex) (dsDNA)
DNA 1: GACGACCCGGACACA
DNA 2: TGTGCTCCGGGTCGTC
modifications: 5'-phosphate on DNA-16
B1: binds [9].
